Assay results from article PMC11825094, “Tonic ubiquitination of the central body weight regulator melanocortin receptor 4 (MC4R) promotes its constitutive exit from cilia” (PLOS Biology, 2025).

Target: melanocortin receptor 4 (MC4R)-3xmNeonGreen, human (human, UniProt P32245 1-332, a fraction carries K63-linked polyubiquitin chains (smear above the main band))
Assay: cell-based or functional assay

Sequence of melanocortin receptor 4 (MC4R)-3xmNeonGreen, human (P32245 whole entry): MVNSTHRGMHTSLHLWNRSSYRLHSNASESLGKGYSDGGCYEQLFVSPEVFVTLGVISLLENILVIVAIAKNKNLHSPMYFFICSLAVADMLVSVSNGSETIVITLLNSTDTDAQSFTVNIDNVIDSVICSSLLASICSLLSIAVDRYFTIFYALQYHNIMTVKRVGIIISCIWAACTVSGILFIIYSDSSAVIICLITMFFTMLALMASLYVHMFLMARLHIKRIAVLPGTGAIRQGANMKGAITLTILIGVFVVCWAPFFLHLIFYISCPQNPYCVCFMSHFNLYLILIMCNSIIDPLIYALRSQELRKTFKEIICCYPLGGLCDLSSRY

ciliary fluorescence of MRAP2^3FLAG in IMCD3-[MRAP2^3FLAG/MC4R^3NG] cells treated with 5 nM HS014, time course, against vehicle: 11 fold
ciliary fluorescence of MRAP2^3FLAG in IMCD3-[MRAP2^3FLAG/MC4R^3NG] cells treated with 50 nM AgRP, time course, against vehicle: 25 fold
B1: melanocortin receptor accessory protein 2 (MRAP2)-3xFLAG, murine (natural protein, mouse, UniProt D3Z1Q2 3-207, looked up)
chain: MSAQRLASNRTSPQSPSNSDYTWEYEYYEIGPVSFEGLKAHKYSIVIGFWVGLAVFVIFMFFVLTLLTKTGAPHQDNAESSERRFRMNSFVSDFGKPLESDKVFSRQGNEESRSLFHCYINEVEHLDRVKVCHQTTAIDSDVHLQEASRSSGRPEEELARFMKFDIPNFVNTEQSSFGEDDLLISEAPVLLENKPVSQTSRIDLD
